In US20210130436A1 (published 2021):
Residue numbers refer to the chain shown, from its start. In names and notes the source's numbering stands.

B1: variant CD80 IgV-Fc Y31S/E35D/M47L/T79L/E88G (Fc fusion, not shown: a dimerising Fc or GST)
chain: VIHVTKEVKEVATLSCGHNVSVEELAQTRISWQKDKKMVLTMMSGDLNIWPEYKNRTIFDITNNLSIVILALRPSDEGLYECVVLKYGKDAFKREHLAEVTLSVKAD
B2: variant CD80 IgV-Fc Q27H/Q33L/E35D/M47V/N55D/L85Q/K89N (Fc fusion, not shown: a dimerising Fc or GST)
chain: B1 chain with Q27H, S31Y, Q33L, L47V, N55D, L79T, L85Q, G88E, K89N
B3: variant CD80 IgV-Fc Q33L/E35D/M47I/T62N/L85Q (Fc fusion, not shown: a dimerising Fc or GST)
chain: B1 chain with S31Y, Q33L, L47I, T62N, L79T, L85Q, G88E
B4: variant CD80 IgV-Fc H18Y/V20A/Q33L/E35D/M47V/Y53F (Fc fusion, not shown: a dimerising Fc or GST)
chain: B1 chain with H18Y, V20A, S31Y, Q33L, L47V, Y53F, L79T, G88E
B5: variant CD80 IgV-Fc Q33L/E35D/M47I/L85Q (Fc fusion, not shown: a dimerising Fc or GST)
chain: B1 chain with S31Y, Q33L, L47I, L79T, L85Q, G88E
B6: variant CD80 IgV-Fc V22A/E23D/Q33L/E35D/M47V (Fc fusion, not shown: a dimerising Fc or GST)
chain: B1 chain with V22A, E23D, S31Y, Q33L, L47V, L79T, G88E
B7: CD80 WT IgV-Fc (Fc fusion, not shown: a dimerising Fc or GST)
chain: B1 chain with S31Y, D35E, L47M, L79T, G88E
notes: also called WT CD80 IgV-Fc; wild-type CD80 IgV-Fc
B8: variant CD80 IgV-Fc E35D/D46E/M47I (Fc fusion, not shown: a dimerising Fc or GST)
chain: B1 chain with S31Y, D46E, L47I, L79T, G88E
B9: variant CD80 IgV-Fc E35D/M43I/D46E/A71G/L85M (Fc fusion, not shown: a dimerising Fc or GST)
chain: B1 chain with S31Y, M43I, D46E, L47M, A71G, L79T, L85M, G88E
B10: variant CD80 IgV-Fc D46V/M47I/A71G (Fc fusion, not shown: a dimerising Fc or GST)
chain: B1 chain with S31Y, D35E, D46V, L47I, A71G, L79T, G88E
B11: variant CD80 IgV-Fc E35D/D46E/L85M (Fc fusion, not shown: a dimerising Fc or GST)
chain: B1 chain with S31Y, D46E, L47M, L79T, L85M, G88E
B12: variant CD80 IgV-Fc E35D/M47I/N48K/I61F (Fc fusion, not shown: a dimerising Fc or GST)
chain: B1 chain with S31Y, L47I, N48K, I61F, L79T, G88E
B13: variant CD80 IgV-Fc E35D/M47L/A71G/L85M (Fc fusion, not shown: a dimerising Fc or GST)
chain: B1 chain with S31Y, A71G, L79T, L85M, G88E
B14: variant CD80 IgV-Fc E35D/D46E/A91G (Fc fusion, not shown: a dimerising Fc or GST)
chain: B1 chain with S31Y, D46E, L47M, L79T, G88E, A91G
B15: variant CD80 IgV-Fc E35D/M47V (Fc fusion, not shown: a dimerising Fc or GST)
chain: B1 chain with S31Y, L47V, L79T, G88E
B16: variant CD80 IgV-Fc E35D/D46E (Fc fusion, not shown: a dimerising Fc or GST)
chain: B1 chain with S31Y, D46E, L47M, L79T, G88E
B17: variant CD80 IgV-Fc E35D/D46E/M47L/V68M/A71G/Y87C/K93R (Fc fusion, not shown: small tags and cut ends; a dimerising Fc or GST)
chain: B1 chain with S31Y, D46E, V68M, A71G, L79T, Y87C, G88E, K93R
B18: variant CD80 IgV-Fc E35D/M47I/V68M/Y87N (Fc fusion, not shown: small tags and cut ends; a dimerising Fc or GST)
chain: B1 chain with S31Y, L47I, V68M, L79T, Y87N, G88E

target: T1, human CTLA4 (full-length, expressed on CHO cells) (human, UniProt P16410 36-223); assay: flow cytometry MFI at 33.3 nM relative to WT CD80 ECD-Fc (R&D), CHO/huCTLA4 cells
T1 construct: also called huCTLA4
T1 sequence (P16410 36-223): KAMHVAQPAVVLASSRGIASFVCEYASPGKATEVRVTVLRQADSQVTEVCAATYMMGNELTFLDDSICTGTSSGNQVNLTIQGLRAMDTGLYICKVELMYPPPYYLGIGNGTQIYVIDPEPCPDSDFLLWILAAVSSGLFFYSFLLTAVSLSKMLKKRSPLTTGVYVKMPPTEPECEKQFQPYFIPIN

Binder | Fold change to WT CD80 [fold]
B1 | 0.01
B2 | 0.31
B3 | 0.01
B4 | 0.02
B5 | 0.11
B6 | 0.02

target: T1, human CTLA4 (full-length, expressed on …); assay: flow cytometry, CHO cells expressing huCTLA4, PE anti-human Fc

Binder | MFI at 33.3 nM [MFI]
B1 | 1100
B2 | 56100
B3 | 1660
B4 | 2880
B5 | 20500
B6 | 3640

target: T2, human PD-L1 on CHO cells (human, UniProt Q9NZQ7 19-290); assay: flow cytometry; PD-L1 MFI over CD28 MFI
T2 construct: whole, on cells; CHO cells stably expressing PD-L1; also called huPD-L1
T2 sequence (Q9NZQ7 19-290): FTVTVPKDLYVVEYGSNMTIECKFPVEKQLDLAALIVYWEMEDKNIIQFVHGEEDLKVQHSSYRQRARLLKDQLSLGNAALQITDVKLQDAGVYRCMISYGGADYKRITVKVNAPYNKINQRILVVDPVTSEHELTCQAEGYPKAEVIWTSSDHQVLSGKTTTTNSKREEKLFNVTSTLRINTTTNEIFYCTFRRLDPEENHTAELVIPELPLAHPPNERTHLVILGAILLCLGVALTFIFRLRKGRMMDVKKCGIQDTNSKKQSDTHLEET

Binder | Ratio of PDL1:CD28 [ratio]
B7 | 1
B8 | 4
B9 | 36
B10 | 6
B11 | 18
B12 | 7
B13 | 42
B14 | 1
B15 | 6
B16 | 5

target: T3, CD28 (endogenously expressed on Jurkat/IL2 reporter cells) (human, UniProt P10747 19-220); assay: flow cytometry, Jurkat/IL2 reporter cells (endogenous CD28), PE anti-human Fc
T3 construct: Endogenous CD28 of Jurkat cells; also called human CD28

Binder | MFI at 33.3 nM [MFI]
B1 | 278
B2 | 269
B3 | 284
B4 | 260
B5 | 287
B6 | 274

target: T4, human PD-L1 (full-length, expressed on CHO cells) (human, UniProt Q9NZQ7 19-290); assay: flow cytometry MFI at 33.3 nM relative to WT CD80 ECD-Fc (R&D), CHO/huPD-L1 cells
T4 construct: also called huPD-L1; CD274
T4 sequence (Q9NZQ7 19-290): as above

Binder | Fold change to WT [fold]
B1 | 4.9
B2 | 1.86
B3 | 9.14
B4 | 15.2
B5 | 8.05
B6 | 9.51

target: T5, CD28 on Jurkat/IL2 reporter cells (human, UniProt P10747 19-220); assay: flow cytometry, Jurkat cells (CD28); MFI relative to WT CD80
T5 construct: whole, on cells; Endogenous CD28 of Jurkat cells; also called Jurkats (CD28)

Binder | Fold change to WT CD80 [fold]
B7 | 1
B8 | 15.2
B9 | 3
B10 | 20.1
B11 | 2.5
B12 | 12.4
B13 | 3
B14 | 52.3
B15 | 7
B16 | 11.8

target: T6, human PD-L1 (huPD-L1), full-length, stably expressed on CHO cells (human, UniProt Q9NZQ7 19-290); assay: flow cytometry, CHO cells expressing huPD-L1
T6 construct: whole, on cells
T6 sequence (Q9NZQ7 19-290): as above

Binder | MFI at 33.3 nM [MFI]
B17 | 24300
B18 | 13100

target: T4, human PD-L1 (full-length, expressed on …); assay: flow cytometry, MFI on CHO/huPD-L1 cells over MFI on Jurkat (CD28) cells, 33.3 nM

Binder | Ratio of PDL1:CD28 [ratio]
B1 | 140
B2 | 55
B3 | 256
B4 | 463
B5 | 222
B6 | 275

target: T4, human PD-L1 (full-length, expressed on …); assay: flow cytometry, CHO cells expressing huPD-L1, PE anti-human Fc

Binder | MFI at 33.3 nM [MFI]
B1 | 38900
B2 | 14800
B3 | 72600
B4 | 121000
B5 | 63900
B6 | 75500

target: T7, human CTLA4 on CHO cells (human, UniProt P16410 36-223); assay: flow cytometry, CHO cells stably expressing CTLA4
T7 construct: whole, on cells; CHO cells stably expressing CTLA4; also called huCTLA4
T7 sequence (P16410 36-223): as the sequence (P16410 36-223) above

Binder | MFI at 33.3 nM [MFI]
B7 | 1920
B8 | 21400
B9 | 26900
B10 | 28400
B11 | 30300
B12 | 25900
B13 | 16600
B14 | 32200
B15 | 20900
B16 | 27900

target: T7, human CTLA4 on CHO cells; assay: flow cytometry, CHO/CTLA4 cells; MFI relative to WT CD80

Binder | Fold change to WT CD80 [fold]
B7 | 1
B8 | 11.2
B9 | 14
B10 | 14.8
B11 | 15.8
B12 | 13.5
B13 | 8.7
B14 | 16.8
B15 | 10.9
B16 | 14.6

target: T2, human PD-L1 on CHO cells; assay: flow cytometry, CHO/PD-L1 cells; MFI relative to WT CD80

Binder | Fold change to WT CD80 [fold]
B7 | 1
B8 | 53.9
B9 | 102
B10 | 104
B11 | 41
B12 | 80
B13 | 118
B14 | 40.1
B15 | 41.7
B16 | 53.4

target: T3, CD28 (endogenously expressed on …); assay: flow cytometry MFI at 33.3 nM relative to WT CD80 ECD-Fc (R&D), Jurkat cells

Binder | Fold change to WT [fold]
B1 | 0.04
B2 | 0.04
B3 | 0.04
B4 | 0.03
B5 | 0.04
B6 | 0.04

target: T2, human PD-L1 on CHO cells; assay: flow cytometry, CHO cells stably expressing PD-L1

Binder | MFI at 33.3 nM [MFI]
B7 | 70.3
B8 | 3790
B9 | 7140
B10 | 7330
B11 | 2880
B12 | 5630
B13 | 8310
B14 | 2820
B15 | 2940
B16 | 3760

target: T5, CD28 on Jurkat/IL2 reporter cells; assay: flow cytometry, Jurkat cells (CD28)

Binder | MFI at 33.3 nM [MFI]
B7 | 66
B8 | 1000
B9 | 200
B10 | 1320
B11 | 164
B12 | 816
B13 | 199
B14 | 3450
B15 | 461
B16 | 779
